Assay results: PMC10766783 (Life Science Alliance, 2024)
Read-outs that look alike come from different tables or passages of the source. Blank lines part the entries; values can stand above or below the molecule they belong to.

What was measured:
[1] = target: camrelizumab; test: BLI; Octet RED96; antibodies captured on anti-human Fc AHC2 tips, PD-1 proteins as analyte at different concentrations; Octet kinetics buffer; 1:1 binding model
[2] = target: cemiplimab; test: as above
[3] = target: nivolumab; test: as above
nivolumab, sequence (heavy, as listed by the source, chain 1 of 2): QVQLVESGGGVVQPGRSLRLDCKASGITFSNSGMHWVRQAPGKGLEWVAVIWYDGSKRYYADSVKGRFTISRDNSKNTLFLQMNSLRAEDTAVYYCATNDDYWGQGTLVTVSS
nivolumab, sequence (light, as listed by the source, chain 2 of 2): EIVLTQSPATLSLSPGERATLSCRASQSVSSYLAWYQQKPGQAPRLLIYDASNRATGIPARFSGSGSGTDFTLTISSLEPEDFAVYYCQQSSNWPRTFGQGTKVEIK

[4] = target: pembrolizumab; test: as above
pembrolizumab, sequence (heavy, as listed by the source, chain 1 of 2): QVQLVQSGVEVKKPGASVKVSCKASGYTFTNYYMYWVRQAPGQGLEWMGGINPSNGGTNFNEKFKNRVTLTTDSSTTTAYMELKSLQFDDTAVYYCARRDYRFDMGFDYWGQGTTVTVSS
pembrolizumab, sequence (light, as listed by the source, chain 2 of 2): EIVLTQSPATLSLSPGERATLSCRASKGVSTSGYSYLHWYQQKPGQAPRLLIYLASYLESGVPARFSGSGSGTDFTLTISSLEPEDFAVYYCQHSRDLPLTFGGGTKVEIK

[5] = target: T1, PD-1 on Jurkat-Lucia TCR-hPD-1 cells (Homo sapiens, UniProt Q15116)
T1 sequence (Q15116 25-288): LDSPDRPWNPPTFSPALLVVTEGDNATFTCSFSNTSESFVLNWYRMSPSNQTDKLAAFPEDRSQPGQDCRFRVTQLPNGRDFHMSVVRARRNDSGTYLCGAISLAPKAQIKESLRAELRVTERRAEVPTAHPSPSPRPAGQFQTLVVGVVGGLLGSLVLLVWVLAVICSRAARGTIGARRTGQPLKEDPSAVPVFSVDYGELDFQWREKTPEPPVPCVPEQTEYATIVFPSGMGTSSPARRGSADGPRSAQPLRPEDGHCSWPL

[6] = target: T2, recombinant PD-1 N58Q mutant (human, UniProt Q15116, N58Q); test: BLI; Octet RED96; antibodies captured on anti-human Fc AHC2 tips, PD-1 proteins as analyte at different concentrations; Octet kinetics buffer; 1:1 binding model; details: both partners purified
T2 construct: PD-1, human, UniProt Q15116, residues 24-167 of the extracellular portion, N58Q; source: Expi293, transiently transfected, purified (Ni Sepharose Excel)
T2 sequence (Q15116 24-167 N58Q): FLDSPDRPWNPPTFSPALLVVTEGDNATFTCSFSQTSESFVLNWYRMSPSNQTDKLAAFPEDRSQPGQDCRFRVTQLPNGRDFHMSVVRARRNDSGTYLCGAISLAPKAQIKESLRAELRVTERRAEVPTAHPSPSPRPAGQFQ

[7] = target: non-fucosylated recombinant PD-1 (PD-1 NF) (human) (UniProt Q15116); test: ELISA; plate-based ligand blocking: plates coated with 5 ug/ml PD-1, PD-1 NF or PD-1 N58Q; antibodies 1 h at room temperature, washed, then 1 ug/ml PD-L1-Fc-biotin 2 h; streptavidin-HRP
non-fucosylated recombinant PD-1 (PD-1 NF) (human), sequence (Q15116 24-167): as the sequence (Q15116 24-167 N58Q) above, with Q35N counted along it

[8] = target: T2, recombinant PD-1 N58Q mutant; test: as above; details: both partners purified
[9] = target: T3, full-length PD-1 on CHO-K1 Fut8 KO cells (human, UniProt Q15116, N-glycans without core fucose (Fut8 KO host)); test: flow cytometry on cells; ligand blocking: PD-1-transfected CHO-K1 or CHO-K1 Fut8 KO cells incubated with antibodies 15 min on ice before PD-L1:SA-PE complexes; four-parameter logistic fit; details: one partner purified
T3 construct: PD-1, human, full length, on transfected cells; also called PD-1 expressed in CHO-K1 Fut8 KO; Fut8-deficient cells; source: CHO-K1 Fut8 KO, transfected, on cells
T3 sequence (Q15116 25-288): as the sequence (Q15116 25-288) above

[10] = target: T4, chimeric receptor with the extracellular and transmembrane domains of PD-1 and intracellular GFP, on CHO-K1 … (Homo sapiens, UniProt Q15116, N-glycans without core fucose (Fut8 KO host)); test: flow cytometry on cells; antibodies added to CHO-K1 or CHO-K1 Fut8 KO cells transfected with PD-1 (extracellular and transmembrane domains)-GFP, 30 min on ice; binding as percentage of PD-1 expression in GFP-positive cells; four-parameter logistic fit; details: one partner purified
T4 construct: PD-1, human, extracellular and transmembrane domains; differs in the host and so in the glycans; also called cell surface PD-1 (CHO-K1 Fut8 KO); source: CHO-K1 Fut8 KO, transfected, on cells
T4 sequence (Q15116 whole entry, looked up, stated change not applied, the tested form may be a part): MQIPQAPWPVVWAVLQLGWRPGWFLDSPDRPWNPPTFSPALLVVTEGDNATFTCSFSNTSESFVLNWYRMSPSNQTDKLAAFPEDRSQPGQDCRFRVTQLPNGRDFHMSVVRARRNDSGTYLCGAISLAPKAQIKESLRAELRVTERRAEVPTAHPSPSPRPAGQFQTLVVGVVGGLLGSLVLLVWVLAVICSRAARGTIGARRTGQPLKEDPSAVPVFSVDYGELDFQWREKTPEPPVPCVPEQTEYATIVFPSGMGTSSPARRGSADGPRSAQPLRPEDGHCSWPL

[11] = target: T1, PD-1 on Jurkat-Lucia TCR-hPD-1 cells; test: cell-based or functional assay

Kd [1]: 380 nM
Kd [2]: 87.1 nM
Kd [3]: 20.8 nM
Kd [4]: 3.67 nM
Molecule: non-fucosylated recombinant PD-1 (PD-1 NF) (from UniProt Q15116 24-167) (domain or fragment)

Kd [1]: 3.41 nM
Kd [2]: 2.95 nM
Molecule: recombinant PD-1 (extracellular portion of human PD-1, residues 24-167) (from UniProt Q15116 24-167) (domain or fragment)

PD-1/PD-L1 reporter assay (Jurkat-Lucia TCR-hPD-1 with Raji-APC-hPD-L1, luciferase): blockade of PD-1:PD-L1, fold change of IC50, Jurkat cells pretreated with the fucose inhibitor against untreated [5]: 2.4 fold
Kd [6]: 260 nM
IC50 [7]: 0.6 nM
IC50 [8]: 1.4 nM
IC50 [9]: 2.6 nM
fold change in EC50 (CHO-K1 Fut8 KO against wild-type CHO-K1) [10]: 1.3 fold
B1: cemiplimab (antibody, V domains shown)
VH: EVQLLESGGVLVQPGGSLRLSCAASGFTFSNFGMTWVRQAPGKGLEWVSGISGGGRDTYFADSVKGRFTISRDNSKNTLYLQMNSLKGEDTAVYYCVKWGNIYFDYWGQGTLVTVSS
VL: DIQMTQSPSSLSASVGDSITITCRASLSINTFLNWYQQKPGKAPNLLIYAASSLHGGVPSRFSGSGSGTDFTLTIRTLQPEDFATYYCQQSSNTPFTFGPGTVVDFR
notes: Whole therapeutic anti-human PD-1 antibody; The PDB entry may hold only the variable part; source: bought: Selleck Chemicals

PD-1/PD-L1 reporter assay (Jurkat-Lucia TCR-hPD-1 with Raji-APC-hPD-L1, luciferase): blockade of PD-1:PD-L1, fold change of IC50, Jurkat cells pretreated with the fucose inhibitor against untreated [11]: 2.8 fold
Kd [6]: 449 nM
IC50 [7]: 1.5 nM
IC50 [8]: 18 nM
IC50 [9]: 5.6 nM
fold change in EC50 (CHO-K1 Fut8 KO against wild-type CHO-K1) [10]: 3 fold
B2: camrelizumab (antibody, V domains shown)
VH: EVQLVESGGGLVQPGGSLRLSCAASGFTFSSYMMSWVRQAPGKGLEWVATISGGGANTYYPDSVKGRFTISRDNAKNSLYLQMNSLRAEDTAVYYCARQLYYFDYWGQGTTVTVSS
VL: DIQMTQSPSSLSASVGDRVTITCLASQTIGTWLTWYQQKPGKAPKLLIYTATSLADGVPSRFSGSGSGTDFTLTISSLQPEDFATYYCQQVYSIPWTFGGGTKVEIK
notes: Whole therapeutic anti-human PD-1 antibody; a human IgG4 isotype was the control and anti-human IgG4 or anti-human IgG the detection reagent; The PDB entry may hold only the variable part; source: bought: Selleck Chemicals
